# Assay results taken from US20030199036.
# Target: S. pombe cdc25 tagged with a triple tandem copy of the hemagglutinin epitope (UniProt P06652)
substance,measurement,value
Schizosaccharomyces pombe pub1 (untagged),"accumulation of cdc25 higher molecular weight (ubiquitinated) species in mts2 mutants, pub1 wild type (SP 1212) against pub1 disruption (SP 1213), Western blot",We estimate that disruption of pub1 reduces the accumulation of cdc25 higher molecular weight species at least 10 fold.
